Numbering of substitutions follows the chain as printed. Names may count otherwise.
B1: I156R: single-substitution thermolysin variant (SEQ ID NO:3 numbering) (protein, listed as Geobacillus caldoproteolyticus)
chain: ITGTSTVGVGRGVLGDQKNINTTYSTYYYLQDNTRGNGIFTYDAKYRTTLPGSLWADADNQFFASYDAPAVDAHYYAGVTYDYYKNVHNRLSYDGNNAAIRSSVHYSQGYNNAFWNGSQMVYGDGDGQTFIPLSGGIDVVAHELTHAVTDYTAGLRYQNESGAINEAISDIFGTLVEFYANKNPDWEIGEDVYTPGISGDSLRSMSDPAKYGDPDHYSKRYTGTQDNGGVHINSGIINKAAYLISQGGTHYGVSVVGIGRDKLGKIFYRALTQYLTPTSNFSQLRAAAVQSATDLYGSTSQEVASVKQAFDAVGVK
B2: Q273Y: single-substitution thermolysin variant (SEQ ID NO:3 numbering) (protein, listed as Geobacillus caldoproteolyticus)
chain: B1 chain with R156I, Q273Y
B3: I156W: single-substitution thermolysin variant (SEQ ID NO:3 numbering) (protein, listed as Geobacillus caldoproteolyticus)
chain: B1 chain with R156W
B4: T049L: single-substitution thermolysin variant (SEQ ID NO:3 numbering) (protein, listed as Geobacillus caldoproteolyticus)
chain: B1 chain with T49L, R156I
B5: T278M: single-substitution thermolysin variant (SEQ ID NO:3 numbering) (protein, listed as Geobacillus caldoproteolyticus)
chain: B1 chain with R156I, T278M
B6: I156T: single-substitution thermolysin variant (SEQ ID NO:3 numbering) (protein, listed as Geobacillus caldoproteolyticus)
chain: B1 chain with R156T

test: not given; details: TIDE 2X 0.78 g/l, 6 gpg, pH 8.2, 30 min at 20°C, A405; variant vs wild-type thermolysin at same protein concentration
Experimental: Thermolysin containing protease samples were obtained from filtered broth of cultures grown in microtiter plates for 3 days at 37° C. with shaking at 280 rpm under humidified aeration.
• Thermolysin containing culture supernatants (˜100-200 μg protein per ml) • TIDE® 2× (nil enzymes) detergent (P&G) • Dilution Buffer (10 mM NaCl, 0.1 mM CaCl2, 0.005% TWEEN®-80) The equipment used was a Biomek FX Robot (Beckman Coulter), a SpectraMAX MTP Reader (type 340; Molecular Devices), and an iEMS incubator/shaker (Thermo/Labsystems). MTPs were obtained from Costar (type 9017). TIDE® 2× Liquid Detergent Preparation (US Conditions):
Milli-Q water was adjusted to 6 gpg water hardness using a (Ca/Mg 3:1) hardness stock solution (282.3 g/L CaCl2.2H20, 130.1 g/L MgCl2.6H2O), 0.78 g/1 detergent TIDE® 2× was added, and the detergent solution was stirred vigorously for at least 15 minutes. Then, 5 mM HEPES was added and the pH adjusted to 8.2.
Microswatches of ¼ inch circular diameter were obtained from CFT (Vlaardingen, The Netherlands).
Two microswatches were placed vertically into each well of a 96-well microtiter plate to expose the whole surface area (i.e., not flat on the bottom of the well).
The incubator was set to 20° C. The filtered culture broth samples were tested at an appropriate concentration by dilution with a mixture of 10 mM NaCl, 0.1 mM CaCl2, 0.005% TWEEN®-80 solution. The detergent solution was prepared as described above. Then, 190 μl of detergent solution were added to each well of the MTP, containing microswatches. To this mixture, 10 μl of diluted enzyme solution were added to each well (to provide a total volume of 200 μl/well). The MTP was covered with a plate seal and placed in an incubator for 30 minutes at 20° C., with agitation at 1400 rpm (iEMS incubator). Following incubation under the appropriate conditions, 100 μl of solution from each well was removed and placed into a new MTP. Subsequently this MTP, containing 100 μl of solution/well, was read at 405 nm in a MTP-Reader. Blank controls, containing 2 microswatches/well and detergent, without the addition of thermolysin containing samples, were also included in the test.
The observed absorbance value was corrected for the blank value (obtained after incubation of microswatches in the absence of added enzyme). The resulting absorbance was a measure for the hydrolytic activity. For each sample (thermolysin or a variant) the performance index (PI) was calculated. The performance index is a comparison of the performance of the variant (actual value) and the standard thermolysin enzyme (theoretical value) at the same protein concentration. In addition, the theoretical values were calculated, using the parameters of the Langmuir equation of the standard enzyme.
C. Stability Assay in the Presence of Detergent
In this example, experiments were conducted to determine the stain removal performance of various singly substituted thermolysin (also referred to herein as Proteinase-T or PrT) variants. As described in Example 1, the stain cleaning performance of thermolysin variants was done utilizing a blood/milk/ink (BMI) microswatch assay. Briefly the cleaning performance of chosen single-substitution thermolysin variants was assessed in a TIDE® 2× microswatch assay.

Molecule	PI (performance index), stain removal
B1	1.22
B2	1.09
B3	1.16
B4	1.25
B5	1.02
B6	1.03

test: Stability assay in 25% TIDE 2X detergent with DTPA (residual Abz-AGLA-Nba protease activity); type: physicochemical; details: 60 min at 32°C; variant residual AGLA activity divided by wild-type residual activity
In short: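 Thermolysin variant culture supernatants stressed in TIDE 2× detergent, with or without DTPA: 60 min at 32° C or 180 min at 50° C. Residual versus unstressed activity on Abz-AGLA-Nba read kinetically at 25° C (Ex 350/Em 420). Performance index is variant residual activity divided by wild-type thermolysin residual activity.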

Molecule	PI (relative stability), 25% TIDE 2X with DTPA
B1	1.15
B2	1.05
B3	1.12
B4	1.02
B5	1.09
B6	1.08

From patent US9976134B2, “Thermolysin variants” (Danisco US Inc., priority 2007, dated 2018)
